For 18 sequences, protein production results are on record in a protein production outcome set (Wang et al. 2014).

This data set in a line: label from the status in PepcDB records.
For the sequence “MVYLLPFFTVMIWGGNSIVNKMAASTIEPSAMSFYRWFVAMVLLTPFCLPAVIKQRHVIRPYLTKLAFLALLGMVLNQSLGYYAGLTTTASNMALITSLVPLISVFLSVPLLGKSVSMLSIVGGVISLGGLAFMLGHGDVTYFLHQDMTQGDSLMLLAALVYAAYCVLLKRWKMPFNSLTLVYMQGFFSVIMLTPLWLSSEQLLPSQEALPLIAYAGIAASIFAPLMWVKAIDLIGADSSAMFMNLMPVVSVALASTLLGEEIHVYHIIGGLMVISGVILSQIKVRKKQDLVVSESLTTTTR”, the protein production entry is given as “failed”.
In the case of “MVYVAVLANIAGNFPALTAALEKIEELKEEGYEIEKYYILGNIVGLFPYPREVIEAIKNLAKTSNVKVIRGKYDQLIAMSDPHAGDPKYIDKLEIPDHLKATLKYTWEKLGHEGREYLRDLPIYLVDKIGKNEIFGVYGSPVNPFDGEILPDQPTSYYEAIMRPVKEYEMLLVASPRYPLDAMTMYGRVVCPGSIGFPPAREHKATFALVDAETLKVKFIEVEYDKKIIEDRIKLEKLPEEVIKILYHGGKA” it was “not failed”; in that of “MVYVFQGIGGYIILFLLMIGEGIGLPLPSEVIMPLVGYYSYLGSISLYLGVIVGTLGSLVGSIIAYIIGYKLGLAFLKRYGKYILIDEGKIEALHNWFLRYGNMAVFGFRFIPGLRALISYPAGIGQMKILKFLGFTFLGHTIWDIVLALIGYQLANQINFVITQAEKLGNYLFILVIVIIVIYILWRIFWKRK”, “failed”.
In the case of “MWDSENIEELSLVIGIGLDKPDDENLELTQQILVPKIISAKEGSSSDPTQLSITKGKTVHQMMRTSALKHKPTFSQHLRLILLSKSVIADQIGMDAIINQFVRDNGTRRSSYVFITNGRTKDIFNMNDEGEPASNVIYDLTENNKVTIRTMEPVTLGEISEHLTSDDSFLIPHVGKENGKLAINGASIIKNKLWHRDLTPIEVQNISLFSGTVEGGVIDLKRDGHLFSYEVYSSNRKIKTAYKDGKFKFTVTRNIEGRLSEDWNPNEDSFKDSYIKSIEKTVEKRVHETVTSFITEKLQKEIKADVTGLGNEVRIHYPQKWKKISRKWDDDYFSNAEIDYRVNVIVRDFGTKGANKLEHHHHHH” it was “not failed”.
In the case of “MWEAIKDRETGRIRSNSFANRFKSRRILSLQLSNRKDFVSPHRGSVNSLQVDLTEGRYLLSGAADGSAAVFDVQRATDYEASGLIAKHKCIFTVDKQHENGHKYAISSAIWYPIDTGLFITGSFDHYLKVWDTNTAQAVVDFKMPGKVYRTAMSSMAMSHTLIAAGTEDVQVRLCDIASGAFSHTLSGHRDGVMSVEWSTSSEWVLYTGGCDGAIRFWDIRRAGCFRVLDQSQTQLGFRPPILKRTAVGSKLSSVAKSSLGGQNRLKTLQSKQTGSQSVKGSSSAKASVEKSRQKRIHPGMLSTLDRATAHYGAVTGLKATNDGMYLLSAGSDSRIRLWDIESGRNTLVNFETGRIQTNKGIQLDTSDDPALVFVPCMKTVKVAFGMWSGRTTLMLRGHYESVNTCCFNSNDQELYTSGSDRQILVWSPGGTVEDEMVQDEVAEDKDNWSD” it was “failed”.
Consider “MWGQMRNRNWRSRALCTVVATSLLALGGPLLSATAAGGPNIAVGDATAASSSHGEYGAANITDGNQGTYWQSGGGSLPQWVQTDLGATERIDEVVLRLPAGWESRDQTLSVQGSADGTGFSTLKTSATYAFDPGSGNTVTIAFPATQTRFVRVDITANTGWQAAQLSELEVHAAGESSVNLAAGRRLTASSSTGAYTPGNGNDGNKATYWESANNALPQWLQADLGSARRVNRVVLRLPDGWPARSQTLKIQASDNGSDFTDLTAAKAYTFDAAGGQSATVTFDAATARYVRVLVTANTGQPAAQISELEVYGPETGDTQAPTTPANLAFTEPATGQIRLTWNESSDDTAVTGYDVYANGDLLTSVAGDVTTYTDTRPAGTTVTYHVRAKDAAGNQSGDSNSVTRRADTGDTQAPTAPSNLALTEPVPGQVKLTWTASTDDRGVTGYDVYADNKLRKSVAGNVTTYTDTQPASANVTYFVRAKDAAGNESGDSNSVFRGGTMDGSNLAVGKPITASSHIHTYVAENANDNSTSTYWEGAAGGYPNTLTLKLGANADVDSVVLKLNPDAGWSRRTQHIEVLGRAQDASGLTSLVAARDYVFDPASGGNSVTIPVGERAADVQLKFTSNTGATAGQVAEFQVIGTPAPNPDLEVTGLTASPGSPVESDEITVSATVRNSGAADAPAGKVAVRLGDTKVATADVPALEAGAQRTVSASLGAREAGSYELSAVADEANEIIEQNETNNTYTRPDPLVVKPVQSSDLVAAAVTTSPSSPAAGDDVTFRVALRNQGTQDSAGGGHPVTLALVDSKGDTVKTLTGTHSGVIAAGSTAPAVSLGTWKAANGSYSLKVTVADDANELPVKRENNTSTQPLFVGRGANMPYDMYEAEDGTVGGGATVVGPNRTIGDIAGEASGRKAVHLDRTGEYVEFTTKADTNTLVTRFSIPDAPGGGGIDATLDVYVDGVMKKALPLTSKYAWLYGAEASPGNSPGAGAPRHIYDEAHIMLGETVPAGSTIRLQKDAANTSDYAIDFVNLEQVSATANPDPAAYAVPAGFTHQDVQNALDKVRMDTSGKLVGVYLPPGDYQTSSKFQVYGKAVKVVGAGPWFTKFHAPTTQDNTDIGFRAEASAKGSTFANFAYFGNYTSRIDGPGKVFDFSNTSDIVIDNIWNEHMVCLYWGANTDRMTIRNSRIRNMFADGINMTNGSTDNLVSNNDARATGDDSFALFSAIDAGGADMKNNLYENLTTTLTWRAAGLAVYGGYNNTFRNIHIADTLVYSGITISSLDFGYPMNGFGTDPTTFENVSIVRAGGHFWGGQTFPGIWVFSASKVFQGIRVNNVDIVDPTYSGIMFQTNYVGGQPQFPIKDTVFTDVSVTGAHKSGDEFDAKSGFGLWANEMPESGQGPAVGEVTFNGLALGDNAVDIRNTTSTFKIIRNP”, for which the protein production result is “failed”.
Consider “MWGYVHLISWVAIVVLTVTALLIYSKSVKGFTMLQMINRVFYILVILSGIMMVQYSVKESWILAIFKILMGIIVIGVVEMLLSYRKQQKPTGMFLMIFIIVVVITVSLGFYLSGGYPLFN”, for which the protein production entry is given as “failed”.
In the case of “MWIQVRTIDGSKTCTIEDVSRKATIEELRERVWALFDVRPECQRLFYRGKQLENGYTLFDYDVGLNDIIQLLVRPD” it was “not failed”; in that of “MWKDLTEPLPEACAEGLEIRVVKSPEELADYAAVLSANWNPPAETVQRFYTEAAEYALRKNSPALYLVGYAGNRAVCSAEAFIHASVVGIYNISTLEHKRRRGYGGAITLATLHTARNAGCDTAVLQASEDGEPVYRKLGFTDCGRFTEYSL”, “failed”; in that of “MWKRASRRAGLRRRAVAQPVPPAELGGTAFSSVLEQLELECRAMVSYALKQGLAMSPDLPGRLAELRVMPGASLHGESGARELAGLHRQLVRAIQPATPQAVVLIERERLRGGWLRWLGPIPLIRTLTLTSVGCLASVVGLAMSSLVNERNITLGFLDSSGSTLGWNVMFILACAGLGAAFSALFQAHRYVADATYDPRFDSSYAARMILGLIAG”, “failed”.
In the case of “MWKRGKISTQLDDDEFRAGMRKAQVIDVREKKEFDAGHILGARNIPYSQMKNRTQELRSDLPVYLYDQGRTFSGRAAMLLSKKGFTQLYILKNGYQRWTGKTKKTKYLEHHHHHH” it was “not failed”.
In the case of “MWMKDPVARPLSPTRLQPALPPEAQSVPELEEVARVLAEIPRPLKRRGSMEQAPAVALPPTHKKQYQQIISRLFHRHGGPGPGGRSQSCPPSLRDLRPGQGPLLLPHQLPFHRPAPSQSSPPEQPQSMEMRSVLRKAGSPRKARRARLNPLVLLLDAALTGELEVVQQAVKEMNDPSQPNEEGITALHNAICGANYSIVDFLITAGANVNSPDSHGWTPLHCAASCNDTVICMALVQHGAAIFATTLSDGATAFEKCDPYREGYADCATYLADVEQSMGLMNSGAVYALWDYSAEFGDELSFREGESVTVLRRDGPEETDWWWAALHGQEGYVPRNYFGLFPRVKPQRSKV” it was “not failed”; in that of “MWNIATAAATLLVAFAATRAYAADIGYLAPPGVAANEFPSPQRPVARIVSPRRASEEHRDALNEAGQIARVLELKPGMTVGDIGAGSGYHTVRLSYLVAPAGSVVAQDVTRDYLIELARRTKLLKLTNVQFALGEPHDPRLPASSLDAAILVHMYHEIAQPYAFLYNLAPALKQGARVGIVDLELPTSKHGTPIELLRCELTAVGYREVATYKLEGDGGYLAVFSPPEVAGRKSPRDIVACRDPAGTR”, “failed”; in that of “MWNKLNKSMMFCQMMFGLSFYGVMVILTRFFLEELNYSEADTMMVVGAFSSIGPLFAIAGGFIADKFLGAYRSLTISYFGFATGYALLVLGSYTTNVPMALCGIALASYGRGLMSPSYPSLYKRTFDTQEHFENCYPVNYSVNNVGALLGQYLFPMFVLVLGFHGSFLLSCVLALLAFATLVIFRKPLLTVGAHIDQKPVSMQNWISFLITSVAMIALVFFMFSNMDIGQNIVYGIGLAAIGYFVILMLKSKKSDALKMGTILIMTALTTAFFVYYGQMMTSMTMVTINTMRGDLFDLIPIAPEASMAMNPLWCIVAGPVIAMIFSALEKRDIHFSTATKIGFAFILTAIAFGILTMAVMGVGEDAIIRPEVFLLIHFFQAFAEVIVGSLVVAFILSVAPKHIEGFSVSLFSVAMALSGIIGAVFSTSIAQEKGHVITQEFVQTVYGSYFQLLTVLAVVMVAIAFIASFIIRKMLESSKQAEEVELKEQKA”, “failed”.
For “MWNLETDRVIKEIEKSNGKNIVFHAPEGLKLAVEKEIEKINDYFNSTKNLIMWGAPCYGACDLCDHELKYNNIDLIIHYGHEELPYAKPDIPTIFIHCYYIYDEIEQNNILNKIDEYLQNNPNTIITTTIQFKELLKKYNPNIILGCRANISNKPKSELEQGTEKETENSKILYIGTGRFHPLMLCYKFKKSVNLFNPTSKEFSAISEEEVNKFIKKRIGAISKLLINPPKKIGVVLSTKKGQNRINVYNKIINLLKDNNIEYMPIILNNASPDNLFYDVSAYIICACPRIVLDDYLNYNKTLLTPKEFEMYIKKDFEYVFDEILFDDFEP”, the protein production result is “failed”.
Regarding “MWPLISNELYKIIKKKKFWITFIVFFALFLAYSIVQYSSEKKYYEPKQRIAMDKLEIKTEKKQLNSPGINAEQKKKIKQYIKQDEKDIKDKKKEDASKDLDWHLRLNKELIQKKYEYIKDKGKGKNEDTEDASISVMKDEYYRDNNLNPYDKTGDLAMDSFLSSKAFMQILVVFIIIAVATSDIVSSEYSPATIKMLLAKPASRAKILFSKFIAILVGNIFIIGIPQVITYLILSFMNGFPNLSQPIAVGRMYQYDSSVILSNHNVGVSPILGSSYLITEGKYLLYLALLDLLFILGCVSICFLISVLIKNSAITIGINVGLGVVMSIIGLMTLEGAIPKALSAITPFLIMTYSSTDVLLMGDMAKRANNPGITVGMGIVVFIVYTVVCMGISTFVFSKKDMLA”, the protein production result is “failed”.
On to “MWPSCMARFPSDGQPGYRFVPSPGSGAGEEEMRPLVSVVCACFNISKYLDEAIASIYAQGYPNLELIVVDDGSTDDTYERLAMLRERHGFQLYRQANRGVSDALNHGLRHARGEFVMTPDLDDILLPGALDTRVDYLLAHPEVGCVGGFNICIDSAGNEVARDGFSEGCVERWGFDAALAETLVVMPLTALYRMEAMKRADFFDPSIRVQDFQITLRIAAQGYEIHRLPAYMGRYRRHGSGLSGRYKLNYEADMQAIEPYRAHPNYRRARQLILNKALKKAVVQDGRYAWQLFRSVPLRAWDRVTLKRFWRFLRYLPVLGLKGGTGVEGR”, for which the protein production entry is reported as “failed”.
For “MWSSREIEDLGLTFAIAIDKGKETNTEKELKEEGGSYPKKDNITLTYQFVNEKAAGAGTSGGGGSGQGAQKAYINISETGDSLQQIGSEVALRRDREVFSPHLKVVVMSEDVLHTFPIDEMLDQFFRDNEIRLSCLVLSAKGEARDALQLKENGEIPAFRLIGLGENEHKVSRILPPMTLAKLIGKLHSGSSFLLQNVVAANGAVKYSGAAVINGKSKKMIGTLNEYETEGITWIRGEGKGGVVKSHDKKSQQTLAYDINKIKSRIQPIVKGKDISFHVDIESEGDLVENWNTKEALDTQFIDRLETTIENEVKKIVGQVLKKIQHDYKADVAGFDESFRLTYPHLWKRVKNNWDDTFSKADITYSVNVTITHFGTVKTQLEHHHHHH”, the protein production result is recorded as “not failed”.
